Laboratory results reported in patent CN109467603A (BIOCELLS BEIJING BIOTECHNOLOGY CO LTD, dated 2019).

B1: scFv2 (scFv)
scFv: QVQLVESGGGVVQPGKSLRLSCAASGFSFRNYDMHWVRQAPGRGLEWVAVTWYDGSNKYYADSVKGRFTISRDNSKNTVYLHINSLRAEDTAVYYCAKDQAHYYNYSTGHFSYYFDSWGQGTLVTVSGGGGSGGGGSGGGGSEIVLTQSPATLSLSPGQRATLSCRTSQTIRKHLAWYQQKPGQAPRLLVYDISSRATGIPARFSGSGSGTDFTLTISSLQPDDFATYYCQRYDTYPRTFGQGTKVEIKR
B2: scFv4 (scFv)
scFv: QVQLVQSGGGLVKPGGSLRLSCVASGFTFSNSGMHWVRQAPGKGLEWVAVIWYDGSKRYYADSVKGRFTISRDNSKNTLFLQMNSLRAEDTAVYYCATNDDYWGQGTLVTVSSGGGGSGGGGSGGGGSEIVMTQSPATLSLSPGERATLSCRASQSVSSNLAWYQQKPGQAPRLLIYDASTRATGIPARFSGSGSGTDFTLTISSLQPEDFATYYCLQDYNYPRTFGQGTKLEIKR
B3: scFv1 (scFv)
scFv: QVQLVQSGGDLVKPGGSLRLSCATSGFTFSTYNMHWVRQAPGKGLEWVSSISRSSDYIYYADSVKGRFTMSRDNAKTSLYLQMNSLRADDTAVYYCARDSWIYDGSGYSSDAFDIWGQGTMVTVSGGGGSGGGGSGGGGSEIVLTQSPATLSLSPGERATLSCRASQSISSYLSWYQQKPGQAPRLLIYDASNRATGIPARFSGGGSGTDFTLTISSLEPEDFAVYYCQQRNSWPLTFGGGTKVEIKR
B4: scFv5 (scFv)
scFv: QVQLVESGGGVVQPGRSLRLDCKASGITFSNSGMHWVRQAPGKGLEWVAVIWYDGSKRYYADSVKGRFTISRDNSKNTLFLQMNSLRAEDTAVYYCATNDDYWGQGTLVTVSSGGGGSGGGGSGGGGSEIVMTQSPATLSLSPGERATLSCRASQSVSSSVSWYQQKLGQAPRLLIYDASNRATGIPARFSGSGSGTDFTLTISSLEPEDFAVYYCQQRSKWPLTFGAGTKVEIKR
B5: scFv3 (scFv)
scFv: QVQLVQSGAEVKKPGSSVKVSCKASGGTFSSYAISWVRQAPGQGLEWMGRIIPILGIANYAQKFQGRVTITADKSTSTAYKELSSLRSEDTAVYYCAAPLPKNGVYPWGQGTLVTVSSGGGGSGGGGSGGGGSGGGGSEIVMTQSPATLSSSPGERVTLSCRASQSVTSHLAWYQQRPGQAPRLLIYDASKRATGIPARFSGSGSGTDFTLTISSLEPEDFATYYCLQDYRYPRTFGQGTKVEIKR

Experiments:
[1] = biological target: T细胞表面PD-1 (human) (UniProt Q15116); test: flow cytometry, MNC co-cultured with DC, no BXOS antibody
[2] = biological target: T细胞表面PD-1 (human) (UniProt Q15116); test: flow cytometry, MNC cultured alone 3 days, no BXOS antibody
[3] = biological target: 生物素化PD-1 (PD-1:PD-L1抑制剂筛选试剂盒, AcroBiosystems，EP-101) (UniProt Q15116); test: competition ELISA, PD-L1 coated, biotinylated PD-1; positive control antibody
[4] = biological target: T1, 人PD-1重组蛋白(Acro Biosystems，PD-1-H5221) (human, UniProt Q15116 25-167); test: phage ELISA on coated human PD-1 recombinant protein
T1 construct: Bought
T1 sequence (Q15116 25-167 limits assumed): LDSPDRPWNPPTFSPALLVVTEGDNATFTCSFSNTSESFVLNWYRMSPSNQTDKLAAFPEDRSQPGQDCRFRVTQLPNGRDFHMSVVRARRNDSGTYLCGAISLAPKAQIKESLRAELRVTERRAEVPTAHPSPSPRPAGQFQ

Molecule | binding result [4] | further results
商品化的抗PD-1的流式抗体PD-1-PE(biolegend，329906) |  | PD-1表达量 (% of T cells stained by PD-1-PE) [1]: 32.6 %; PD-1表达量 (% of T cells stained by PD-1-PE) [2]: 26.2 %
阳性对照αPD-1单克隆抗体:Anti-PD1mAb，Human(IgG4)Lot No.B52-63NS1-AS,ACRO Biosystems (antibody) |  | 阻断率 [3]: 70.7 %
B1 | binds | 
B2 | binds | 
B3 | binds | 
B4 | binds | 
B5 | binds | 
